According to paper PMC8240473 (DNA repair, 2020):
“And” between values parts separate entries of the source, which are not always exact repeats. Equal values may be shown once. Read-outs that look alike come from different tables or passages of the source. No end group written: not given here. *: point of attachment. Biotin = O=C1N[C@H]2[C@H](CS[C@H]2CCCCC(=O)*)N1; Ahx = NCCCCCC(=O)O

B1: PCNA, purified (natural protein, yeast, UniProt P15873 1-258, looked up)
chain: MLEAKFEEASLFKRIIDGFKDCVQLVNFQCKEDGIIAQAVDDSRVLLVSLEIGVEAFQEYRCDHPVTLGMDLTSLSKILRCGNNTDTLTLIADNTPDSIILLFEDTKKDRIAEYSLKLMDIDADFLKIEELQYDSTLSLPSSEFSKIVRDLSQLSDSINIMITKETIKFVADGDIGSGSVIIKPFVDMEHPETSIKLEMDQPVDLTFGAKYLLDIIKGSSLSDRVGIRLSSEAPALFQFDLKSGFLQFFLAPKFNDEE
B2: N-terminally biotinylated peptide containing PIP1 of pol η (peptide)
chain: {Biotin-Ahx}-QKKQVTSSKNILSFFTRKK
B3: Rad6-Rad18 complex, purified (complex, yeast)
chain 1: MDHQITTASDFTTTSIPSLYQLDTLLRCHICKDFLKVPVLTPCGHTFCSLCIRTHLNNQPNCPLCLFEFRESLLRSEFLVSEIIQSYTSLRSSLLDALRIPKPTPVPENEEVPGPENSSWIELISESESDSVNAADDDLQIVATSERKLAKRSMTDILPLSSKPSKRNFAMFRSERIKKKSKPNEQMAQCPICQQFYPLKALEKTHLDECLTLQSLGKKPKISTTFPTESNPHNKSSSRFKVRTPEVDKSSCGETSHVDKYLNSMMSAEHQRLPKINFTSMTQSQIKQKLSSLGLSTNGTRQNMIKRYNHYEMLWNSNFCDSLEPVDEAELKRQLLSWDVSHNKTPQNSSNKGGISKLMIMKSNGKSSSYRKLLENFKNDKFNRKGWMVMFRKDFARLIREAKMKIKTGSSDSSGSVGHSNDGDGVEKVQSDQGTEDQQMEKDQDTVINEDRVAGERNLPNEDSTDADLSRELMDLNEYSKDPPGNN
chain 2: MSTPARRRLMRDFKRMKEDAPPGVSASPLPDNVMVWNAMIIGPADTPYEDGTFRLLLEFDEEYPNKPPHVKFLSEMFHPNVYANGEICLDILQNRWTPTYDVASILTSIQSLFNDPNPASPANVEAATLFKDHKSQYVKRVKETVEKSWEDDMDDMDDDDDDDDDDDDDEAD
B4: Rad6, purified (enzyme, yeast, UniProt P06104 1-172, looked up)
chain: B3 chain 2

Columns and labels:
Assay in all cases: BLI
[1] = target: N-terminally biotinylated peptide containing the R6BD of Rad18 (yeast)
[2] = target: N-terminally biotinylated peptide containing the R6BD of Rad18 (yeast); remark: listed apart in the source
[3] = target: B2
[4] = target: B3
[5] = target: B1
[6] = target: B4

## Rad6, purified (from UniProt P06104 1-172) (enzyme)
[1]
  Kd: 2500 nM
[2]
  Kd: 2800 nM

## B1
[3]
  dwell time: 190 s

## B2
[4]
  Kd: 1200 ± 100 nM
  koff: 0.0008 s⁻¹
[5]
  Kd: 7.2 ± 2.4 nM
  koff: 0.0054 s⁻¹
[6]
  Kd: 2300 ± 400 nM
  koff: 0.02 s⁻¹

## B3
[3]
  dwell time: 1300 s

## B4
[3]
  dwell time: 50 s

## {Biotin-Ahx}-ESSKNLSFGEKRLLFSRKRP [N-terminally biotinylated peptide containing PIP2 of pol η]
[4]
  Kd: 3700 ± 500 nM
  koff: 0.13 s⁻¹
[5]
  Kd: 12000 nM and 13000 nM
  koff: 0.3 s⁻¹
[6]
  koff: 0.6 s⁻¹

## NKRLKKQGTLESFFKRKAK (not fully specified) [PIP-like motif of Pol32 (peptide)]
[6]
  Kd: 600 nM
